Measurements taken from PMC12430004.
Substitutions are numbered along the chain they refer to. Read-outs that look alike come from different tables or passages of the source.

T1: hPNPase E475G (Homo sapiens, UniProt Q8TCS8 46-783, E475G)
T1 sequence: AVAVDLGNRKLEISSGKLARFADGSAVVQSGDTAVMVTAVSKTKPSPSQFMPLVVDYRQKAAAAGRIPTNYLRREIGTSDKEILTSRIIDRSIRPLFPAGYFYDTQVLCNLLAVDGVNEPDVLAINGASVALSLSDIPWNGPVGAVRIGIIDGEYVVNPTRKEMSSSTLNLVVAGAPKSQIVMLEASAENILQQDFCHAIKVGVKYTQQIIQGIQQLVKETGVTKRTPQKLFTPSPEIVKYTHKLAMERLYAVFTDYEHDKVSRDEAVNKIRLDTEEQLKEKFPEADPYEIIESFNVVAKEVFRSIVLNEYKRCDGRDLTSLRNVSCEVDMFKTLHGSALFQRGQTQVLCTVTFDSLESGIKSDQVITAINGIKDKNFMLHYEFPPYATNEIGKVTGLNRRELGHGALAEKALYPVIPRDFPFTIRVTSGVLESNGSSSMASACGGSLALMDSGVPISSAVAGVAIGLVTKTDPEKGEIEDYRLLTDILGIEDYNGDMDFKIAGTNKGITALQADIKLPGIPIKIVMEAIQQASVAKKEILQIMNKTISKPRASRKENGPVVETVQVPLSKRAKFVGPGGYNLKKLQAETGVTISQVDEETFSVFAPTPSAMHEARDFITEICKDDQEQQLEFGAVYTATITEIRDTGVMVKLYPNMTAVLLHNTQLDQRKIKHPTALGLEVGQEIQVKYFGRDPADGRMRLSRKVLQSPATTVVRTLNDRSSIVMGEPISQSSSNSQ

T2: hPNPase P140L (Homo sapiens, UniProt Q8TCS8 46-783, P140L)
T2 sequence: T1 sequence with P95L, G430E

T3: hPNPase Q387R (Homo sapiens, UniProt Q8TCS8 46-783, Q387R)
T3 sequence: T1 sequence with Q342R, G430E

B1: DNA20 (ssDNA)
DNA: ACTGGACAAATACTCCGACG
B2: RNA20 (ssRNA)
RNA: ACUGGACAAAUACUCCGACG

How the values were obtained:
Experiment in all cases: EMSA
[1] = molecular target: T1, hPNPase E475G
[2] = molecular target: T2, hPNPase P140L
[3] = molecular target: T3, hPNPase Q387R
[4] = molecular target: T1, hPNPase E475G; remark: listed apart in the source
[5] = molecular target: T3, hPNPase Q387R; remark: listed apart in the source

Binder	binding result [1]	binding result [2]	binding result [3]	binding result [4]	binding result [5]
B1	no binding	no binding	no binding	–	–
B2	–	–	–	no binding	no binding
